Measured values: US20250186597A1, “TARGETED IMMUNE ACTIVATION WITH IL-18 IMMUNOCYTOKINES” (BRIGHT PEAK THERAPEUTICS AG, priority 2023, published 2025)

Columns and labels:
[1] = target: native IL-18 wild-type (SEQ ID NO: 1) (human) (UniProt Q14116); experiment: cell-based or functional assay
[2] = target: human IL-18BP-His (human) (UniProt O95998); experiment: AlphaLISA detection of free IL-18BP
[3] = target: human IL-18BP-His (human) (UniProt O95998); experiment: AlphaLISA for free IL-18BP; test item titrated (x axis) and pre-incubated with human IL-18BP-His, unbound IL-18BP detected
[4] = target: human IL-18BP-His (human) (UniProt O95998); experiment: AlphaLISA detection of free IL-18BP after incubation with the IL-18 analyte
[5] = target: recombinant Human Fc gamma RIIIA/CD16a Protein (R&D systems, 4325-FC-050; CF) (human) (UniProt P08637); experiment: ELISA; antibody coated, Fc gamma receptor titrated
[6] = target: recombinant Human Fc gamma RI/CD64 Protein (R&D systems, 1257-FC-050, CF) (human) (UniProt P12314); experiment: ELISA; antibody coated, Fc gamma receptor titrated
[7] = target: recombinant Human Fc gamma RIIB/CD32b Avi-tag Protein (R&D systems, AVI1875-050, CF) (human) (UniProt P31994); experiment: ELISA; antibody coated, Fc gamma receptor titrated
[8] = target: recombinant Human Fc gamma RIIA/CD32a (H167) Protein (R&D systems, 9595-CD-050, CF) (human) (UniProt P12318); experiment: ELISA; antibody coated, Fc gamma receptor titrated
[9] = target: recombinant biotinylated human FcRn (human) (UniProt P55899); experiment: AlphaLISA competition at pH 6; competitor: human IgG on acceptor beads
[10] = target: recombinant biotinylated human FcRn (human) (UniProt P55899); experiment: AlphaLISA competition at pH 6; test molecule titrated (x axis) against human IgG-conjugated acceptor beads for biotinylated human FcRn on streptavidin donor beads

human IL-18BP-His (human), sequence (O95998 31-194): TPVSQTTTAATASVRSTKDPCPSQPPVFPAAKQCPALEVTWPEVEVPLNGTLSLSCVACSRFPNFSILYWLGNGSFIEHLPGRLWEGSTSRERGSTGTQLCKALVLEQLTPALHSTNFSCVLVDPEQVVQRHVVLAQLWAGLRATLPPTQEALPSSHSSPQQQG
recombinant biotinylated human FcRn (human), sequence (P55899 24-297 limits assumed, chain 1 of 2): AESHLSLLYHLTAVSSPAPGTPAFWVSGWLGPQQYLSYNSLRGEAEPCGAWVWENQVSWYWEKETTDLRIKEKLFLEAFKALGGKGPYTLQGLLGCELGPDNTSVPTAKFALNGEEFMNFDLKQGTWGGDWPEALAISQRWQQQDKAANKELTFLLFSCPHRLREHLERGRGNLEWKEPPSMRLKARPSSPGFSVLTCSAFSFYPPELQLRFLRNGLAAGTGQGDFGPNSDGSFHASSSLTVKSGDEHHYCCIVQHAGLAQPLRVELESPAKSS
recombinant biotinylated human FcRn (human), sequence (chain, as listed by the source limits assumed, chain 2 of 2): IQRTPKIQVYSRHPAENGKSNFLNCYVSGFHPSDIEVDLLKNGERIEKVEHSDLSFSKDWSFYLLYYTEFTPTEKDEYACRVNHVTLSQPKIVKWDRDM
recombinant Human Fc gamma RIIB/CD32b Avi-tag Protein (R&D systems, AVI1875-050, CF) (human), sequence (P31994 46-217 limits assumed): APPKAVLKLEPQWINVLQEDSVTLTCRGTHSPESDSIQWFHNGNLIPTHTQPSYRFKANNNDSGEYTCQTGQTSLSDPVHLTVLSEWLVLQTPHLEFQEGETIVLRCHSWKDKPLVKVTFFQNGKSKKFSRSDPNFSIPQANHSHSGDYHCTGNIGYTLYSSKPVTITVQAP
recombinant Human Fc gamma RIIIA/CD16a Protein (R&D systems, 4325-FC-050; CF) (human), sequence (P08637 17-208 limits assumed): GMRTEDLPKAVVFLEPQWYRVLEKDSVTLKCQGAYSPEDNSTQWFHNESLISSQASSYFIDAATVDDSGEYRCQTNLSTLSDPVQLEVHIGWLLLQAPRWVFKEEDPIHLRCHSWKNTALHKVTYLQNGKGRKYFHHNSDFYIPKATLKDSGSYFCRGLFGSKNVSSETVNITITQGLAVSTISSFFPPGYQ
recombinant Human Fc gamma RIIA/CD32a (H167) Protein (R&D systems, 9595-CD-050, CF) (human), sequence (P12318 36-218 limits assumed): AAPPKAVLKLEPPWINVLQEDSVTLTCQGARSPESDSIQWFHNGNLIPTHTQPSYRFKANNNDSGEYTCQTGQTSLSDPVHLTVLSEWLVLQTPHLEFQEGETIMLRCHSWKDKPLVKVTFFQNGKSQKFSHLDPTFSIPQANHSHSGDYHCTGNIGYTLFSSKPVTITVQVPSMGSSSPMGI
recombinant Human Fc gamma RI/CD64 Protein (R&D systems, 1257-FC-050, CF) (human), sequence (P12314 16-288 limits assumed): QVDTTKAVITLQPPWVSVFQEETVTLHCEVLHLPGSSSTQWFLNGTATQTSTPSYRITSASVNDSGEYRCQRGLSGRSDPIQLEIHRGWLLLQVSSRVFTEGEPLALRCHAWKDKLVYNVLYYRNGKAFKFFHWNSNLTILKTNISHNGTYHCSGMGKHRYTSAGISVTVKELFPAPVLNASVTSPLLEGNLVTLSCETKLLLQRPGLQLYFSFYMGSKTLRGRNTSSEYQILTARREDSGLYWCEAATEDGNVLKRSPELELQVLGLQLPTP

Substance	Kd [2] [nM]	other results
His-tag human IL-18 binding protein isoform a (IL-18BPa; SinoBiologicals #10357-H08H) (from UniProt O95998 31-194)	–	IC50 of IL-18BP-mediated inhibition of IFNγ secretion, PD-1negative parental NK-92 cells [1]: 2.97 nM
IL-18 polypeptide C166 (V11I, C38A, S55T, C76A, C127A) (from UniProt Q14116 37-193) (ligand)	0.02	–
IL-18 polypeptide C167 (V11I, C38A, C76A, S105I, C127A) (from UniProt Q14116 37-193) (ligand)	0.04	–
IL-18 polypeptide C168 (V11I, C38A, C76A, S105K, C127A) (from UniProt Q14116 37-193) (ligand)	0.05	–
IL-18 polypeptide C174 (K8L, E6K, V11I, C38A, K53A, T63A, C76A, C127A) (from UniProt Q14116 37-193) (ligand)	0.14	–
IL-18 polypeptide C176 (E6K, V11I, C38A, I49M, K53A, T63A, C76A, C127A) (from UniProt Q14116 37-193) (ligand)	25.8	–
IL-18 polypeptide C184 (E6R, V11I, C38A, K53A, T63A, C76A, C127A) (from UniProt Q14116 37-193) (ligand)	5.46	–
IL-18 polypeptide of SEQ ID NO: 31 (C38A, C76A, C127A) (from UniProt Q14116 37-193) (ligand)	–	IC50 (read off the curve) [3]: 0.1 nM; Kd [4]: 0.103 nM
IL-18 polypeptide of SEQ ID NO: 35 (Y01G, F02A, E06K, M51G, K53A, D54A, S55A, T63A) (from UniProt Q14116 37-193) (ligand)	969	–
IL-18 polypeptide of SEQ ID NO: 36 (K53A) (from UniProt Q14116 37-193) (ligand)	514	–
IL-18 polypeptide of SEQ ID NO: 37 (S55A) (from UniProt Q14116 37-193) (ligand)	10.7	–
IL-18 polypeptide of SEQ ID NO: 38 (E06K) (from UniProt Q14116 37-193) (ligand)	0.13	–
IL-18 polypeptide of SEQ ID NO: 39 (E06K, K53A) (from UniProt Q14116 37-193) (ligand)	130	–
IL-18 polypeptide of SEQ ID NO: 40 (E06K, S55A) (from UniProt Q14116 37-193) (ligand)	12.3	–
IL-18 polypeptide of SEQ ID NO: 41 (K53A, S55A) (from UniProt Q14116 37-193) (ligand)	500	–
IL-18 polypeptide of SEQ ID NO: 42 (E06K, K53A, S55A, T63A) (from UniProt Q14116 37-193) (ligand)	822	–

Substance	Kd [2] [nM]	other results
IL-18 polypeptide of SEQ ID NO: 47 (C38S, C68S, C76S, C127S) (from UniProt Q14116 37-193) (ligand)	0.03	–
IL-18 polypeptide of SEQ ID NO: 48 (C38S, C68S, C76S, C127S, K70C) (from UniProt Q14116 37-193) (ligand)	0.21	–
IL-18 polypeptide of SEQ ID NO: 50 (E06K, K53A, T63A) (from UniProt Q14116 37-193) (ligand)	340	–
IL-18 polypeptide of SEQ ID NO: 51 (T63A) (from UniProt Q14116 37-193) (ligand)	2.59	–
IL-18 polypeptide of SEQ ID NO: 52 (E06K, T63A) (from UniProt Q14116 37-193) (ligand)	0.83	–
IL-18 polypeptide of SEQ ID NO: 53 (K53A, T63A) (from UniProt Q14116 37-193) (ligand)	198	–
IL-18 polypeptide of SEQ ID NO: 54 (E06K, K53A, C38S, C68S, C76S, C127S, K70C) (from UniProt Q14116 37-193) (ligand)	446	–
IL-18 polypeptide of SEQ ID NO: 55 (K53A, T63A, C38S, C68S, C76S, C127S, K70C) (from UniProt Q14116 37-193) (ligand)	913	–
IL-18 polypeptide of SEQ ID NO: 56 (E6K, K53A, C38S, C76S, C127S) (from UniProt Q14116 37-193) (ligand)	436	–
IL-18 polypeptide of SEQ ID NO: 57 (E6K, C38S, K53A) (from UniProt Q14116 37-193) (ligand)	50.2	–
IL-18 polypeptide of SEQ ID NO: 59 (E6K, C38A, K53A) (from UniProt Q14116 37-193) (ligand)	36	–
IL-18 polypeptide of SEQ ID NO: 60 (E6K, C38Q, K53A) (from UniProt Q14116 37-193) (ligand)	24.8	–
IL-18 polypeptide of SEQ ID NO: 62 (E6K, C38A, K53A, C127A) (from UniProt Q14116 37-193) (ligand)	69.6	–
LZM-009 (antibody)	–	Kd [5]: 1710 nM; Kd [6]: 0.315 nM; Kd [7]: 2630 nM; Kd [8]: 1350 nM; Kd [9]: 6 nM; IC50 (read off the curve) [10]: 5 nM
native IL-18 wild-type (SEQ ID NO: 1) (from UniProt Q14116 37-193) (ligand)	0.67	IC50 (read off the curve) [3]: 0.4 nM; Kd [4]: 0.411 nM
